This is an account of results in US20120114557A1 (published 2012).

Bridge positions count the residues as written; N and C are the ends. Primed or numbered codes have the meaning given here. Side chains are listed from the residue outwards. Ends that are not written are not given here. Gd^T″ = GdDTPA-thiourea; Gd^ = not defined here

The target in assay [1] is T1, human collagen (acid soluble, extracted from placenta; type I) (human, UniProt P02452 162-1218; P08123 80-1119).
T1 construct: mature; Tissue-extracted collagen; also called human collagen type I
Description: dried collagen assay, 5 uM each, 37 C, pH 7.4. Here is the method:
(§1) For the final assay, a 1:10 volume of 10×PBS (100 mM NaH₂PO₄, 1.5 M NaCl pH 7.4) is added to the collagen solution (final 1×PBS) and incubated at 37° C. for 2 hours.

Assay [2] concerns the target T2, rat collagen (acid soluble, type I, rat tail) (rat, UniProt P02454 152-1207; P02466 86-1125).
T2 construct: mature; Tissue-extracted collagen; also called rat collagen type I
Description: dried collagen assay, 5 uM each, 37 C, pH 7.4. Here is the method:
as §1

The target in assay [3] is T3, human collagen type I (human, UniProt P02452 162-1218; P08123 80-1119).
T3 construct: biotinylated collagen I in the phage ELISA; also called dried human collagen; Collagen I
Description: dried collagen assay, 5 uM peptide. As for the experimental part: An additional 90 μL is reserved in a HPLC glass vial as a measure of the total concentration.

In assay [4] the target is T3, human collagen type I. In words: dried collagen assay, 5 uM peptide. This is another data set of the same source.
Description: (§2) For the final assay, a 1:10 volume of 10×PBS (100 mM NaH₂PO₄, 1.5 M NaCl pH 7.4) is added to the collagen solution (final 1×PBS) and incubated at 37° C. for 2 hours. The gelation is typically 90%.
The target in another assay is T4, rat collagen type I (rat, UniProt P02454 152-1207; P02466 86-1125).
T4 construct: rat tail, Upstate 08-115; gelled and dried in wells; also called dried rat collagen; rat collagen (acid soluble, type I, rat tail)
In words: dried collagen assay, 5 uM peptide.

T3 sequence (P02452 162-1218 limits assumed, chain 1 of 2): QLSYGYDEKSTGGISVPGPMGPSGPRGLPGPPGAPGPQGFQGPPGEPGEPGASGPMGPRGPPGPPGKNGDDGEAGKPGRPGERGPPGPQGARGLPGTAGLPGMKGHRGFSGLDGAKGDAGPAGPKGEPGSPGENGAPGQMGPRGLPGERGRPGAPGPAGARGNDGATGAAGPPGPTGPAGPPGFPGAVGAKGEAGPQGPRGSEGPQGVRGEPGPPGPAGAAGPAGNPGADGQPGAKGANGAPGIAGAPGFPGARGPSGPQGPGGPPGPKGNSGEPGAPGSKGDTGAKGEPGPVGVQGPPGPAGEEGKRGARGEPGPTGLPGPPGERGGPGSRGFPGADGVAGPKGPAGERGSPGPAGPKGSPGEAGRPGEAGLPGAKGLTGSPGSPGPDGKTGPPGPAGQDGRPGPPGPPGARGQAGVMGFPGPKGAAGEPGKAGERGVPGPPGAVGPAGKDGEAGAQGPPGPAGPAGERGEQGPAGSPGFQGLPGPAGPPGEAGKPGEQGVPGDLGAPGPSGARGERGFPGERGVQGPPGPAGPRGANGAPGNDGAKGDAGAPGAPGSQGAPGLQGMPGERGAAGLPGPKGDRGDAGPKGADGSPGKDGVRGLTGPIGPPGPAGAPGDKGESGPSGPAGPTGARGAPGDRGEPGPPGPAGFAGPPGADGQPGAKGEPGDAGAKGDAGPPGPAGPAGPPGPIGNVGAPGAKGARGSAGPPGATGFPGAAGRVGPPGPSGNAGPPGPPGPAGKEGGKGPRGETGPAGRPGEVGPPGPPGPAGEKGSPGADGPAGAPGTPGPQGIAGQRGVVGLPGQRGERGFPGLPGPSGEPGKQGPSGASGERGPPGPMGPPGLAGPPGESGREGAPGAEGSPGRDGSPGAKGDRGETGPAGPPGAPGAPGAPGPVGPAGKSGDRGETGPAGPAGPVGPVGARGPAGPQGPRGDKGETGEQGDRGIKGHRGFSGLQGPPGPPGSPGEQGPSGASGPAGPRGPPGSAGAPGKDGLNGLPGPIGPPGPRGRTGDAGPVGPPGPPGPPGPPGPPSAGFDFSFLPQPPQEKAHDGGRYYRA
T3 sequence (P08123 80-1119 limits assumed, chain 2 of 2): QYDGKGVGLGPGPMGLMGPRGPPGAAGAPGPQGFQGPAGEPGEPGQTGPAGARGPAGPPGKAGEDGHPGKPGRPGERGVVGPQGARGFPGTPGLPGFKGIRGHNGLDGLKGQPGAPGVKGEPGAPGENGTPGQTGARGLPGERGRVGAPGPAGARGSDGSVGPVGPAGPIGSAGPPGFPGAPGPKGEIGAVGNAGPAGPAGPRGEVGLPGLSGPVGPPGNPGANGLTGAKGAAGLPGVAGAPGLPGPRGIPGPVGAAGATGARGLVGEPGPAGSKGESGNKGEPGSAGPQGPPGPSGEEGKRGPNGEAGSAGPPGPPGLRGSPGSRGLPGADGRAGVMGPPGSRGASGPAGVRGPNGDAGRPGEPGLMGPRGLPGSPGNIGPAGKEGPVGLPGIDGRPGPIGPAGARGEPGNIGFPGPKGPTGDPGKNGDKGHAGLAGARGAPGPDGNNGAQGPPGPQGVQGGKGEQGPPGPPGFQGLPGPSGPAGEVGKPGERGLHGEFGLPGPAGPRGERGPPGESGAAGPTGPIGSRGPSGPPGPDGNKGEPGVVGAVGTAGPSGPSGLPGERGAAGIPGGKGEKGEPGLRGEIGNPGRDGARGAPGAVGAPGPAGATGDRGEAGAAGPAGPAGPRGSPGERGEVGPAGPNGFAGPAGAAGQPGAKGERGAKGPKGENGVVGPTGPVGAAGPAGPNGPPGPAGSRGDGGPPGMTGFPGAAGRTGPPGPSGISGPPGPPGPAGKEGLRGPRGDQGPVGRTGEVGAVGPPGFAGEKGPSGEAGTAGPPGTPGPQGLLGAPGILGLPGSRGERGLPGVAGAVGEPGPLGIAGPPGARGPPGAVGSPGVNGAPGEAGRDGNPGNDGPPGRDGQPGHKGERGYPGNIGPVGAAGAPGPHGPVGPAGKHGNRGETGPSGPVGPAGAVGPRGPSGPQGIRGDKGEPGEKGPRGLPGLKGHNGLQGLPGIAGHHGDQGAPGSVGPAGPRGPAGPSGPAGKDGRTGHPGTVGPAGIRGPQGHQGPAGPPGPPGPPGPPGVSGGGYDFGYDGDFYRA
T2 sequence (P02454 152-1207, chain 1 of 2): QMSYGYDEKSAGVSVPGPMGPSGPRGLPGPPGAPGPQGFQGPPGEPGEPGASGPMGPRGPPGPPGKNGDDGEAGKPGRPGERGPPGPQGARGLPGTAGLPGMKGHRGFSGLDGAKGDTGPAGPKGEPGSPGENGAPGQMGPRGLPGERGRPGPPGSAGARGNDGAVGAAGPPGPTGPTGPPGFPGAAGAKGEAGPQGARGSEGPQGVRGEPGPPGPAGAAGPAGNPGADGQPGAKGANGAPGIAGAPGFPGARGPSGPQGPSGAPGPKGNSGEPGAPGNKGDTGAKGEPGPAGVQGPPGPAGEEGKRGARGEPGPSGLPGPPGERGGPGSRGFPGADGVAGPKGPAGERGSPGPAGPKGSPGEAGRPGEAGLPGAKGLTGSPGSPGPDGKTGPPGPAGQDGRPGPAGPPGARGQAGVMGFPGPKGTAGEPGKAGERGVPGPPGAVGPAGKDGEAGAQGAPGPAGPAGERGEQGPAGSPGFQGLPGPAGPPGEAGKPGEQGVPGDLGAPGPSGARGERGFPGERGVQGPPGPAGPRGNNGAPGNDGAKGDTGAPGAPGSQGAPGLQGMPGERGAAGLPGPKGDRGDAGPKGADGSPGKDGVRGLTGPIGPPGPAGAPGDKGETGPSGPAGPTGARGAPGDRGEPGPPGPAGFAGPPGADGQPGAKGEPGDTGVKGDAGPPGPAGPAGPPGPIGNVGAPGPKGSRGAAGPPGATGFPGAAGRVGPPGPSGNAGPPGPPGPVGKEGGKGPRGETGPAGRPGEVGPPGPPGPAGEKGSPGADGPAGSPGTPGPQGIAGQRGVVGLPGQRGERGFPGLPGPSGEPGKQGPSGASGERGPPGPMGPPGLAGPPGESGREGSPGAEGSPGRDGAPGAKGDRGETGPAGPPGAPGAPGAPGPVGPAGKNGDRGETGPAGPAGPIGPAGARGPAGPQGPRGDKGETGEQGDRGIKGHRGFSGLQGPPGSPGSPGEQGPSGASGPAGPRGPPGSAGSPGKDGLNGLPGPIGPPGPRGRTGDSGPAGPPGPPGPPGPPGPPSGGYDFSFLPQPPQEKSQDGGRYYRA
T2 sequence (P02466 86-1125, chain 2 of 2): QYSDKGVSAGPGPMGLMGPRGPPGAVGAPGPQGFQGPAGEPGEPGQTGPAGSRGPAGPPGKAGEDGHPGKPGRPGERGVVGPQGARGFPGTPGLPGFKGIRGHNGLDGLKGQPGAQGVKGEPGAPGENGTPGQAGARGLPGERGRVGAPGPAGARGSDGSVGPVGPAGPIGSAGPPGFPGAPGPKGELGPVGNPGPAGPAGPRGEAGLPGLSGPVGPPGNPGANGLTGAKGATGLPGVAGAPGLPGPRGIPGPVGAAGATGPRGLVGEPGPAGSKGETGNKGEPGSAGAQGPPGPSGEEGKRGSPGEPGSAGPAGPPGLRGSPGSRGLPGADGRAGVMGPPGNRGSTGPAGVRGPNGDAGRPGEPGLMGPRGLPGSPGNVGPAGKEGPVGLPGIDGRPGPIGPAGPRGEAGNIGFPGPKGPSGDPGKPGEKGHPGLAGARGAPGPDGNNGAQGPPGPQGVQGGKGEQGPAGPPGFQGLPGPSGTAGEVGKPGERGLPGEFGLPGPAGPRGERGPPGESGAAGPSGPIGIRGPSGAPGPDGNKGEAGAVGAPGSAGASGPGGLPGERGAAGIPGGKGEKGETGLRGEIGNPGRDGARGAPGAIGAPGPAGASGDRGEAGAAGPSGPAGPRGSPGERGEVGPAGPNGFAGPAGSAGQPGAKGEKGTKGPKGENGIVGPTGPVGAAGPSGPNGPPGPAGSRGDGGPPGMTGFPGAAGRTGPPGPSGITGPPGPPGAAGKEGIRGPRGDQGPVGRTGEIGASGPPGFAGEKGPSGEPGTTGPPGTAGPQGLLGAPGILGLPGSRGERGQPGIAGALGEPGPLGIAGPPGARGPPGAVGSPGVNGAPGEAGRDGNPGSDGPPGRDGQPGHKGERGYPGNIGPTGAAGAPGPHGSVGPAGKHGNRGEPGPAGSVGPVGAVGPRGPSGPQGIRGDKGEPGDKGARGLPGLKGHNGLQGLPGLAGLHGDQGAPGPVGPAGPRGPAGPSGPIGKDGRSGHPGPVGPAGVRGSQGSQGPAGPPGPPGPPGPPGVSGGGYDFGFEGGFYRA
T1 sequence (P02452 162-1218, chain 1 of 2): as the sequence (P02452 162-1218 limits assumed, chain 1 of 2) above
T1 sequence (P08123 80-1119, chain 2 of 2): as the sequence (P08123 80-1119 limits assumed, chain 2 of 2) above
T4 sequence (P02454 152-1207, chain 1 of 2): as the sequence (P02454 152-1207, chain 1 of 2) above
T4 sequence (P02466 86-1125, chain 2 of 2): as the sequence (P02466 86-1125, chain 2 of 2) above
Description for rat collagen type I: as §2

B1: Compound ID 864 (peptide)
peptide: {Gd^}-TGQWHCTTRFPHHYCLYG
modifications: not fully specified (some residues, bridges); printed as Gd^T.G.Q.W.H.C.T.T.R.F.P.H.H.y.C.L.Y.G; reading uncertain; also: series closure stated: disulfide
notes: also called Comp ID NO; 864
For B1, in assay [1], the Human binding was determined as 64%.

B2: Compound ID 966 (peptide)
peptide: {Gd^T″}-GK([Gly-Gd^T″])WHCTTLFPHHVCLYG
modifications: disulfide 5-14 (inferred)
notes: also called Comp ID NO; 966
Turning to B2, in assay [2], the Rat binding was determined as 8%.

B3: SEQ ID NO: 75 (peptide)
peptide: ERNCVLNDFRWTCGGD
modifications: disulfide 4-13 (inferred)
notes: also called TN-10 peptide
With B3, in the assay with human collagen type I [3], the “Dried Human Collagen Binding” value was 10%.

B4: Compound ID 837 (peptide)
peptide: {Gd^T″}-GQWTCSGDEYTWHCNYE-{GTE}
modifications: disulfide 5-14 (inferred)
notes: also called Comp ID NO; 837
In assay [2], B4 showed a Rat binding of 10%. Also, the Human binding in assay [1] was found to be 22%.

B5: SEQ ID NO: 77 (peptide)
peptide: GWQCQGTDSLDWKCLYM
modifications: disulfide 4-14 (inferred)
notes: also called TN-11 peptide
As for B5, the “Dried Human Collagen Binding” value with human collagen type I [3] worked out at 12%.

B6: SEQ ID NO: 98 (peptide)
peptide: WQVCADSPGVITYCYTY
modifications: disulfide 4-14 (inferred)
notes: also called TN-11 peptide
For B6, the “Dried Human Collagen Binding” value with human collagen type I [3] came out at 5%.

B7: SEQ ID NO: 67 (peptide)
peptide: GWSCHSMDMQWHCDFS
modifications: disulfide 4-13 (inferred)
notes: also called TN-10 peptide
For B7, the “Dried Human Collagen Binding” value with human collagen type I [3] was 5%.

B8: SEQ ID NO: 108 (peptide)
peptide: YHACYQAGCYIY
modifications: disulfide 4-9 (inferred)
notes: also called TN-6 peptide
Turning to B8, in the assay with human collagen type I [4], the “% Collagen Binding, Dried Human” value was 5%. In addition, the “% Collagen Binding, Dried Rat” value with rat collagen type I turned out to be 12%.

B9: SEQ ID NO: 80 (peptide)
peptide: SWYCNNGSYGQWHCEHR
modifications: disulfide 4-14 (inferred)
notes: also called TN-11 peptide
Take B9: the “Dried Human Collagen Binding” value with human collagen type I [3] came out at 6%.

B10: SEQ ID NO: 66 (peptide)
peptide: RWSCVLDADGWVCSDN
modifications: disulfide 4-13 (inferred)
notes: also called TN-10 peptide
On to B10, for which, in the assay with human collagen type I [3], the “Dried Human Collagen Binding” value came out at 6%.

B11: SEQ ID NO: 68 (peptide)
peptide: SWHCFLENHHWMCSDH
modifications: disulfide 4-13 (inferred)
notes: also called TN-10 peptide
Turning to B11, the “Dried Human Collagen Binding” value with human collagen type I [3] came out at 5%.

B12: SEQ ID NO: 8 (peptide)
peptide: GWQCFGASDWHCTWV
modifications: disulfide 4-12
notes: also called TN-9 peptide
Turning to B12, the “Dried Human Collagen Binding” value with human collagen type I [3] came to 9%.
